Results taken from patent publication US5969097A, “Human guanylin” (G. D. Searle & Co., priority 1992, dated 1999).

Molecular target: T1, intestinal guanylate cyclase (Homo sapiens, UniProt P25092)
T1 construct: host or cells: T84 human colon carcinoma cells
Test: T84 cell bioassay: intracellular cyclic GMP levels
Assay type: cell-based
Conditions: compared with STa; T84 cells, FIG. 3a
Experimental: a) Activity in the T84 cell bioassay. As determined by analysis of the effects of the peptides on intracellular cyclic GMP levels.
Cell Culture: A cultured human colon carcinoma cell line (T84) was obtained from the American Type Culture Collection (Rockville, Md.) at passage 52. Cells were grown to confluency in 24-well culture plates with a 1:1 mixture of Ham's F12 medium and Dulbecco's modified Eagle's medium (DMEM), supplemented with 10% fetal calf serum, 100 IU/ml penicillin, and 100 μg/ml streptomycin. Cells were used at passages 54-60.
Cyclic GMP determination: Monolayers of T84 cells in 24-well plates were washed twice with 1 ml/well DMEM, then incubated at 37 C. for 10 min with 0.5 ml DMEM containing 1 mM isobutylmethylxanthine (IBMX), a cyclic nucleotide phosphodiesterase inhibitor. Agents and fractions were then added for the indicated time as described in the results section. The media was then aspirated and the reaction terminated by the addition of ice cold 0.5 ml of 0.1N HCl. Aliquots were then evaporated to dryness under nitrogen and then resuspended in 5 mM sodium acetate buffer, pH 6.4. The samples were subsequently measured for cyclic GMP by RIA as described by Steiner et al. (16).

T1 sequence (P25092 24-1073): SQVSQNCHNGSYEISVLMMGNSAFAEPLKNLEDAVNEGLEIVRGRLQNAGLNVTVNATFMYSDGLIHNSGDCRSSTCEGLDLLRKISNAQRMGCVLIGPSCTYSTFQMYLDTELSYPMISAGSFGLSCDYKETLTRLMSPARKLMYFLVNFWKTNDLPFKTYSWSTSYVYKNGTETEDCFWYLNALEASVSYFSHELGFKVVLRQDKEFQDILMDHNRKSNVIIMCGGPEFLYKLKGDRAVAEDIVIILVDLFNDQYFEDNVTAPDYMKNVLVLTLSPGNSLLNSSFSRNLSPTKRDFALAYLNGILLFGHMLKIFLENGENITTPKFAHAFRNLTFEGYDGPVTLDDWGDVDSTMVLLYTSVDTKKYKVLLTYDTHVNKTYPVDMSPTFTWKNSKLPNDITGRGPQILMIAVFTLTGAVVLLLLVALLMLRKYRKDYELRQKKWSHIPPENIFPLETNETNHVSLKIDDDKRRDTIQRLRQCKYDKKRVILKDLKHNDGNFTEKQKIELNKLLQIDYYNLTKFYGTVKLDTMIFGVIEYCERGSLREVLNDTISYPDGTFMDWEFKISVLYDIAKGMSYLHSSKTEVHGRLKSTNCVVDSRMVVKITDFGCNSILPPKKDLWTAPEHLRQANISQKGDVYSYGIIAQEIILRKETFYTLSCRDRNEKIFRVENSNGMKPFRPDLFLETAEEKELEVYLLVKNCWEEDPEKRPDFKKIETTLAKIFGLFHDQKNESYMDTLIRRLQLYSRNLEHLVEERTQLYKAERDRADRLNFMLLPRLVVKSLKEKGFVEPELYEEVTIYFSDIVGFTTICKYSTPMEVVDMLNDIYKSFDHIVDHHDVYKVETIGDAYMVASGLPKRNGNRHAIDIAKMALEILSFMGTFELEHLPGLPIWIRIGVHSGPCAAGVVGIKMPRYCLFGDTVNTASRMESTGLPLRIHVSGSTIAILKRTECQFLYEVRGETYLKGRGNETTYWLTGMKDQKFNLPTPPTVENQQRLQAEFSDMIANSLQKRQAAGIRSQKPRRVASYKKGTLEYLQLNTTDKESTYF

B1: rat guanylin: 15 amino acid rat guanylin peptide; shares 14 of 15 amino acids with human guanylin (peptide)
peptide: MNAWLLSVLCLLGALAVLVEGVTVQDGDLSFPLESVKQLKHLREVQEPTLMSHKKFALRLPKPVAPELCSQSAFPEALRPLCEKPNAEEILQRLEAIAQDPNTCEICAYAACTGC
relative potency to activate intestinal guanylate cyclase (T84 cell cyclic GMP): about one order of magnitude less potent than STa
